# Assay: soluble on expression in E. coli; label from the status in PepcDB or PDB records
row,Sequence,soluble on expression in E. coli
1,MRVSLYVVVGGFALLTGCQTLDNHQVTKPEAQTVTTENTVPQYYLATEPESAQVTDVWERIRQGMQLPVPDKKLVNYYRDWYINNPKHLEVISERAAPYMYLIVEELEKRHLPIEIALLPIIESAFDPSASSASAASGLWQFTTPMASHFGLEMNWWYDGRRDVPASTTAALDMLEYLYNKTNNNWLYAIAAYNTGESKVLNAIKRNEDKGLKTDFWSLDLPKETKRYVPQLLALAEVIKHADEYGITLAPINNSPSIEVVDIDSQIDLAMAAGLANMTTTELAKLNPGYNRWATSPLGPHTLVLPIDKSEEFKKALAETESEARVSWLRYTIKSGDSIGSIAQKHHTTVNAIRAANGMKSNNIVAGRHLIIPVSADDKQLYALSTSQKLPKKAAGATSGNKLTYQVKSGDSLWQIAQAHNVSVKQLTAWNHLSKDSKLQTGQKLTIVAPQEKLDSEHIRTVSYKVKSGDSLAQIASKFKVTVAELLEWNSLTPSQYILPGQVLKLVVDESNLNALEHHHHHH,not soluble
2,MGSDKIHHHHHHVKVLVTGAAGFIGYSLATRLLARGDEVIGVDIVNDYYDPRLKEARLARLAQQGGGRFTFLRTDFADYPALTAALEGAHFDRIVHLGAQAGVRYSIENPHAYVQSNLVGHVNLLEVARHRGVEHMVYASSSSVYGGNTKLPFSVDDRVDHPLSLYAATKKADELMSETYAHLYRLPLTGLRFFTVYGPWGRPDMMMWLFTRAILAGEPIQVFNHGDMYRDFTYVDDIVSGVVACLDNPPLDDGAPKAGGSLKPHRLYNIGNHKSEHLMKVIAILEAELGRKAEMRMLPMQPGDVRQSFADIDAISGDLGYRPTTGIETGVPNFVRWYKDYHGL,not soluble
3,MAHHHHHHMSSQKESKKRKSDALDQACLELSEEVENAEEVPKKNDEVEEEDLETQFSNWKVNSGLLYDFVSRKELEWPSLSIDFGDYHNENVEDSVFNQIVCVGTHTSNKELNYLYVCEVLFPLEQLPQENCIYKTNQNYEGFDFCPDKKKFTIQSKIAHEGEVNRIKFLPLEKKNFVVTKAIDGNLHLFDINKHEIETSEDKMSPEVSFIGNSSDGFGLDFNAEKKYALTCGNDGVLNLYDYTEMDSKKVSPFYSVKYKSPLNDVCATNDPNLILSCADNGYILMYDIRVKGEEPAQQVLGQQVAVNCISLNKFTGHFASGSENGKIKIWDIKRFSEPQHIIHAHKEPIIRLNFSPNDSSILGSASTSRFINIYNLTKIGEELDAIDLSDGPSELIFSHGGHTQPITDFNWNHHKQLKMFIGSTGEDNTLQFWQLKTELLDEANTVPTSNTDVE,not soluble
4,MSLASIRDIARQAEVSPGTVSRVLNNDPTLSVAKETRTRIHQIAQALQYEKVTRKNKRIQIITYASREKEMSDPYYREIRLAIEAEVKRLNLSLKRTIRIDGQQDHIDLNKIENAGAIIVIGNFSVDALNKLKTHNANMVVINNPNTPKSIDAVYSDLDDAMTELLNRILDKGLTKIAYIGGHHTIRELNGITTTNAADVRYQAYQSWCEKHDVEEIVLLNGWGKTQGEDAVKVYLESDHAFPQVFIAGNDMIAIGILQQLQLNKKAIPEEVKLISFNDLEVIQYAVPSISSVHIPVDEFGRTAVRMAEERINNTRQIAIHVVVEAQLKARNTFKVEGHHHHHH,soluble
5,SNNCKENFLTSRYNKPVDEKQYNIPGKVTITTLQNIPVIYKRIVGSYKELELTNPLSELFQYGMEHDLLDKDSSFPLTIYHSHPDITTADNQRASSCIIIKQNVKQLDSEEIGLMEIPSGLYGVIHFEIRQKEYPDAWDFVYGNWLPSSGYLPANSFPFEVYLNNPLEDPLQKHIVDIYIPIEPIN,not soluble
6,MDSSVPMIDLSSGDDEEVEVAMRRSYLLPPVPERPDGFPSLLFGNGNLSRSTLSINQEISMAPSPFSEITVSSQRPLVARSGSNSSEHNLQIKEAVKKKPVADIAHVSGTFVCVCVRGAQKNFYQKYLIATPSIPKLNTFE,soluble
7,MGSDKIHHHHHHMTHPALIDELQALADPGKVLTDAGSLETYGKDWTRQFTPAPLAIVFPKTTEQVQAIVRWANERLVALVPSGGRTGLSAAAVAANGEVVVSFDYMNQVLELNLTDRTAVCQPGVITRQLQALAEDNGLYYPVDFASSGSSQIGGNIGTNAGGIKVIRYGMTRNWVAGLKVVTGKGDLLELNKDLIKNATGYDLRQLFIGAEGTLGFVVEATMRLDRAPKNLTAMVLGTTDFNSIMPVLHAFHGKLDLTAFEFFSDKSFARVMARGDVPSPFDTPCPFYVLLEFEATTEDLADQALATFEHCVEQGWVLDGVMSQSEQQLRNLWKLREYISETISHFTPYKNDISVSVSKVPEFLAEIDAIVAEYYPDFEVLWYGHIGDGNLHLNILKPENLDKDEFFVKCARVNKWVFETVEKYNGSISAEHGVGMTKRDYLTYSRSPVEIEYMKALKAVFDPNGIMNPGKIFAV,not soluble
8,ARLRAGFEAAGAQGVETPILQPAETLLDLYGEDIRARAYVTSDALRGEQMLRPDFTVPVVQKHMEHGAEPARYTYAGEVFRRQEHDPDRANEYIQVGYEVFDRTNPAAADAEVFALIAQALDGLALRAATGDIGILMAAVEGLKTTEPRKAALMRHIWRPRRFRALLDRYAGRTTVPPARAALLAESEPLADGAPEIGKRSRAEVEARIEVLRADAAAAPISDNEMAGLDALLSVRETMPYALEHLRDIAVDLPQITPALDRLEARIAALRARGINVDRLDFEASYGRTSMEYYDGFVFGFYAERRPDLPPIATGGRYDALTRRLGNGAEIPAVGGVLRPGLMLLLAEAE,not soluble
9,MQIGAKIRQLRIANQMTQEELADRAELSKGFISQIENDLTSPSINTLVDILQCLGTDLKTFFSDSEDKQIVFREKDYFSKTDNELKNTIEWVVPNSQKNAMEPIRMTLQPGGRSLEDHPHEGEEFGYVVKGSIEVHIGNECYRVNEGESFYFESTRKHYIVNVGESDAQVIWVSTPPTF,not soluble
10,MLVLYLVFKKFLFKPVMKVINAREDMIKQQFDDAKKSQEEADALKASYDEKLESAKTEADEIIVNARNRAQEEHEAALEKTRKETEVMLEKAKADIATEKEKATEAAQADIARLALIAARKIVKTGDAHDAGSSK,not soluble
11,MKRSTTDSDLAGDAHNETNKKMKSTEEEEIGFSNLDENLVYEVLKHVDAKTLAMSSCVSKIWHKTAQDERLWELICTRHWTNIGCGQNQLRSVVLALGGFRRLHSLYLWPLSKPNPRARFGKDELKLTLSLLSIRYYEKMSFTKRPLPESK,soluble
12,MKPLRSPWVMRALARFFSGYIALTYKTLRWTREGQAIADRVQAEALASGGGAILALWHSRVPVGPATWPQGPDKPEIRVLVSQSRDGEFIARVIARLGLPSIRGSSLKKTDTAKNKGGEQAFRDMVKWVKDGGAMAITPDGPRGPVEVMQKGAVALARVSGAPVLFVGVAVNPCIRLKTWDRTIIPLPFAKAAMVWDGPVHAGRDDDPDAVVEAWGARLSAVSRRAEAIVGETPPKDLEHHHHHH,not soluble
13,SVQNPVEVSCSLQTQIFVFTPGASSVTIIWWVCFLTSVSMSAQTSPAEKGLNPGLMCQESYACSGTDEAIFECDECCSLQCLRCEEELHRQERLRNHERIRLKPGHVPYCDLCKGLSGHLPGVRQRAIVRCQTCKINLCLECQKRTHSGGNKRRHPVTVYNVSNLQESLEAEEMDEETKRKKMTEKVVSFLLVDENEEIQVTNEEDFIRKLDCKPDQHLKVVSIFGNTGDGKSHTLNHTFFYGREVFKTSPTQESCTVGVWAAYDPVHKVAVIDTEGLLGATVNLSQRTRLLLKVLAISDLVIYRTHADRLHNDLFKFLGDASEAYLKHFTKELKATTARCGLDVPLSTLGPAVIIFHETVHTQLLGSDHPSEVPEKLIQDRFRKLGRFPEAFSSIHYKGTRTYNPPTDFSGLRRALEQLLENNTTRSPRHPGVIFKALKALSDRFSGEIPDDQMAHSSFFPDEYFTCSSLCLSCGVGCKKSMNHGKEGVPHEAKSRCRYSHQYDNRVYTCKACYERGEEVSVVPKTSASTDSPWMGLAKYAWSGYVIECPNCGVVYRSRQYWFGNQDPVDTVVRTEIVHVWPGTDGFLKDNNNAAQRLLDGMNFMAQSVSELSLGPTKAVTSWLTDQIAPAYWRPNSQILSCNKCATSFKDNDTKHHCRACGEGFCDSCSSKTRPVPERGWGPAPVRVCDNCYEARNVQLAVTEAQVDDEGGTLIARKVGEAVQNTLGAVVTAIDIPLGLVKDAARPAYWVPDHEILHCHNCRKEFSIKLSKHHCRACGQGFCDECSHDRRAVPSRGWDHPVRVCFNCNKKPGDL,soluble
14,MAQTPAFNKPKVELHVHLDGAIKPETILYFGKKRGIALPADTVEELRNIIGMDKPLSLPGFLAKFDYYMPVIAGCREAIKRIAYEFVEMKAKEGVVYVEVRYSPHLLANSKVDPMPWNQTEGDVTPDDVVDLVNQGLQEGEQAFGIKVRSILCCMRHQPSWSLEVLELCKKYNQKTVVAMDLAGDETIEGSSLFPGHVEAYEGAVKNGIHRTVHAGEVGSPEVVREAVDILKTERVGHGYHTIEDEALYNRLLKENMHFEVCPWSSYLTGAWDPKTTHAVVRFKNDKANYSLNTDDPLIFKSTLDTDYQMTKKDMGFTEEEFKRLNINAAKSSFLPEEEKKELLERLYREYQ,soluble
15,MSLSDGDYDYLIKFLALGDSGVGKTSVLYQYTDGKFNSKFITTVGIDFREKRVVYRASGPDGATGRGQRIHLQLWDTAGQERFRSLTTAFFRDAMGFLLLFDLTNEQSFLNVRNWISQLQMHAYCENPDIVLCGNKSDLEDQRVVKEEEAIALAEKYGIPYFETSAANGTNISQAIEMLLDLIMKRMERCVDKSWIPEGVVRSNGHASTDQLSEEKEKGACGCEGHHHHHH,soluble
16,MKRRCVFMRLSLLDYVPLFEGRTPNDALKHSIKLAQHAEKLGYLRYWVAEHHQVYSVVSSAPEIIMMSILEHTQHIRVGSGGVMLPHYSPYKVAEQFKIMEARHPQRIDMAIGRSPSFKNVNAALNENKNEKLPFNTQITDLLKYFNNDTTQDHRFKSLLATPMVTSFPQLYILGMSNRSAKLAAQRGLPFVIARMGQSETDLHEAISTYRKYFKAYHGEINNAKPYVILATFVVTASNLSRVKQLLHTLQLWLMRINYLNQPKSYPSIETAQNKHYSQRELEKLEKMKSKIIYGMPNDVAEQLTLLHQQFKVDEIIILPHVFGEDARMELIELIANELIPSCSRDEF,not soluble
17,MAHHHHHHMPSVATASTRAVLAYPTDDAKLLVELTPTDRVAGGGSCGGFSGGGPMTQSDLGVGGSRMLQSLLVTRNVRDHLLDLRFSEAALSAQVTLQGDTVRDLIADITAAQSTEVSIRIDPKVGVILRGEGGPYGEVEAHVHATSEALLSLSREQSASTRVYTHHLALACGARGGTGGGGSSGSSAGAGGTGGGRLRGTGASVRDGRLSNADYILMGLAASAAGAGSSGGGGGAAVGTLFGGFERLTLQINAQRQLSVLHTQRDHELKVFVTVVVMPLSSVCDML,not soluble
18,DIELTQTPVSLAASLGDRVTISCRASQDINNFLNWYQQKPDGTIKLLIYYTSRLHAGVPSRFSGSGSGTDYSLTISNLEPEDIATYFCQHHIKFPWTFGAGTKLEIK,soluble
19,MARIIRRPLNLTAAVRFRLSPLSPFSGNSGSINSETTSWSELIRVPSLVEGCDYKHWLVLMKPPNGYPTRNHIVQSFVETLAMALGSEEEAKRSIYSVSTKYYYAFGCRIHEPLTYKIRSLPDVKWVLPDSFIVDGDNRYGGEPFVDGEVVPYDEKYHADWLRDQTDEDAKSGVVKKKHRRKRKKKLI,soluble
20,MGHHHHHHSHMAAGTLYTYPENWRAFKALIAAQYSGAQVRVLSAPPHFHFGQTNRTPEFLRKFPAGKVPAFEGDDGFCVFESNAIAYYVSNEELRGSTPEAAAQVVQWVSFADSDIVPPASTWVFPTLGIMHHNKQATENAKEEVRRILGLLDAYLKTRTFLVGERVTLADITVVCTLLWLYKQVLEPSFRQAFPNTNRWFLTCINQPQFRAVLGEVKLCEKMAQFDAKKFA,not soluble
